One molecule from patent publication US20230057263A1 (CYTOMX THERAPEUTICS, published 2023) can be followed below.

Experiment [1] deals with T1, (H2N-KEFSELEQSGYYVCYPRGSNPEDA-OH) vCD3e #p3-BSA (conjugated to BSA).
T1 construct: also called control peptide #p3
T1 peptide: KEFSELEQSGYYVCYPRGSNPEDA
The experiment is described as follows: Luminex bead assay [Cont.]. On the procedure:
(§1) A set of experiments was performed to map the epitope recognized by the anti-CD3ε antibodies. In these experiments, the anti-CD3ε antibodies were assessed for binding to a collection of overlapping 15-mer peptides spanning amino acids 1-27 of human CD3ε protein using a Luminex bead assay. Control CD3 proteins, control peptides, or the test peptides were immobilized on Luminex beads and incubated with a panel of anti-CD3 antibodies. Binding of the anti-CD3 antibodies to the peptide/protein immobilized on the Luminex bead was detected by R-Phycoerythrin conjugated secondary antibody.
(§2) Recombinant CD3 proteins (human CD3d/e heterodimer and cynomolgus CD3-epsilon (Sinobiological)) and control peptides (#p1, #p2, and #p3) were conjugated to Luminex beads using standard EDC/Sulfo-NHS chemistry. The 15-mer test peptides were synthesized as biotinylated peptides at JPT Peptide Technologies Gmbh and were immobilized on streptavidin-conjugated Luminex beads that were made using standard EDC/Sulfo-NHS chemistry and streptavidin (Invitrogen Cat. No. 434301 lot 1626028A). The Luminex beads with immobilized peptides or reagents were incubated with 50 ul of a panel of anti-CD3 antibodies (1 ug/ml) for one hour at room temperature, washed two times, incubated with mixture of anti-human and anti-mouse IgG-RPE (Jackson Immunoresearch 109-116-097 and Southern Biotech 1030-09, respectively) for 30 mins at RT, washed three times, and analyzed in the Luminex instrument to assess the level of bound anti-CD3 antibodies.

The target of a further experiment is T2, B X GNEEMGGITQTPYKV (reading uncertain).
T2 construct: row 4 of the chart; also called biotinylated 15-mer, residues 3-17
T2 peptide: {Biotin-code X}-GNEEMGGITQTPYKV
Kind of experiment: Luminex bead assay [Cont.]. On the procedure:
as §1, §2

The target of the next experiment is T3, B X NEEMGGITQTPYKVS (reading uncertain).
T3 construct: row 5 of the chart; also called biotinylated 15-mer, residues 4-18
T3 peptide: {Biotin-code X}-NEEMGGITQTPYKVS
Kind of experiment: Luminex bead assay [Cont.]. The protocol:
as §1, §2

For the next experiment, the target named is T4, B X EMGGITQTPYKVSIS (reading uncertain).
T4 construct: row 7 of the chart; also called biotinylated 15-mer, residues 6-20
T4 peptide: {Biotin-code X}-EMGGITQTPYKVSIS
The experiment is described as follows: Luminex bead assay [Cont.]. The protocol: as §1, §2

In experiment [2] the target is T5, B X GITQTPYKVSISGTT (reading uncertain).
T5 construct: row 10 of the chart; also called biotinylated 15-mer, residues 9-23
T5 peptide: {Biotin-code X}-GITQTPYKVSISGTT
The experiment is described as follows: Luminex bead assay [Cont.]. On the procedure: as §1, §2

Another experiment addresses T6, B X ITQTPYKVSISGTTV (reading uncertain).
T6 construct: row 11 of the chart; also called biotinylated 15-mer, residues 10-24
T6 peptide: {Biotin-code X}-ITQTPYKVSISGTTV
The experiment is described as follows: Luminex bead assay [Cont.]. On the procedure: as §1, §2

Experiment [3] deals with T7, B X QTPYKVSISGTTVIL (reading uncertain).
T7 construct: row 13 of the chart; also called biotinylated 15-mer, residues 12-26
T7 peptide: {Biotin-code X}-QTPYKVSISGTTVIL
Kind of experiment: Luminex bead assay [Cont.]. On the procedure: as §1, §2

The target in experiment [4] is T8, B X QDGAEEMGGITQTP (reading uncertain).
T8 construct: row 18 of the chart; 14 residues; also called alanine-scan peptide N4A
T8 peptide: {Biotin-code X}-QDGAEEMGGITQTP
The experiment is described as follows: Luminex bead assay [Cont.]. The protocol:
as §1, §2

Experiment [5] concerns the target T9, BSA alone (bovine, UniProt P02769).
T9 construct: carrier protein without peptide
The experiment is described as follows: Luminex bead assay [Cont.]. The protocol: as §1, §2

In another experiment the target is T10, B X EEMGGITQTPYKVSI (reading uncertain).
T10 construct: row 6 of the chart; also called biotinylated 15-mer, residues 5-19
T10 peptide: {Biotin-code X}-EEMGGITQTPYKVSI
The experiment is described as follows: Luminex bead assay, 1 ug/ml antibody [Cont.]. On the procedure: as §1, §2

The target in another experiment is T11, B X MGGITQTPYKVSISG (reading uncertain).
T11 construct: row 8 of the chart; also called biotinylated 15-mer, residues 7-21
T11 peptide: {Biotin-code X}-MGGITQTPYKVSISG
Kind of experiment: Luminex bead assay, 1 ug/ml antibody [Cont.]. On the procedure: as §1, §2

The target of another experiment is T12, B X GGITQTPYKVSISGT (reading uncertain).
T12 construct: row 9 of the chart; also called biotinylated 15-mer, residues 8-22
T12 peptide: {Biotin-code X}-GGITQTPYKVSISGT
The experiment is described as follows: Luminex bead assay, 1 ug/ml antibody [Cont.]. The protocol: as §1, §2

The target in experiment [6] is T5, B X GITQTPYKVSISGTT
The experiment is described as follows: Luminex bead assay, 1 ug/ml antibody [Cont.]. On the procedure:
as §1, §2

In experiment [7] the target is T7, B X QTPYKVSISGTTVIL
The experiment is described as follows: Luminex bead assay, 1 ug/ml antibody [Cont.]. The protocol:
as §1, §2

For another experiment, the target named is T13, B X ADGNEEMGGITQTPY (reading uncertain).
T13 construct: row 15 of the chart; also called alanine-scan peptide Q1A
T13 peptide: {Biotin-code X}-ADGNEEMGGITQTPY
Kind of experiment: Luminex bead assay, 1 ug/ml antibody [Cont.]. The protocol: as §1, §2

A further experiment has as its target T14, B X QDANEEMGGITQTP (reading uncertain).
T14 construct: row 17 of the chart; 14 residues; also called alanine-scan peptide G3A
T14 peptide: {Biotin-code X}-QDANEEMGGITQTP
The experiment is described as follows: Luminex bead assay, 1 ug/ml antibody [Cont.]. The protocol: as §1, §2

The target of experiment [8] is T8, B X QDGAEEMGGITQTP
The experiment is described as follows: Luminex bead assay, 1 ug/ml antibody [Cont.]. The protocol:
as §1, §2

For another experiment, the target named is T15, B X QDGNEEAGGITQTP (reading uncertain).
T15 construct: row 21 of the chart; 14 residues; also called alanine-scan peptide M7A
T15 peptide: {Biotin-code X}-QDGNEEAGGITQTP
The experiment is described as follows: Luminex bead assay, 1 ug/ml antibody [Cont.]. On the procedure:
as §1, §2

For a further experiment, the target named is T16, B X QDGNEEMGGATQTP (reading uncertain).
T16 construct: row 24 of the chart; 14 residues; also called alanine-scan peptide I10A
T16 peptide: {Biotin-code X}-QDGNEEMGGATQTP
The experiment is described as follows: Luminex bead assay, 1 ug/ml antibody [Cont.]. On the procedure: as §1, §2

A further experiment deals with T17, B X QDGNEEMGGIAQTP (reading uncertain).
T17 construct: row 25 of the chart; 14 residues; also called alanine-scan peptide T11A
T17 peptide: {Biotin-code X}-QDGNEEMGGIAQTP
The experiment is described as follows: Luminex bead assay, 1 ug/ml antibody [Cont.]. On the procedure: as §1, §2

For another experiment, the target named is T18, huCD3d/eCHO-E DT1331 (human, UniProt P04234).
T18 construct: recombinant, part of a CD3 delta/epsilon heterodimer; coupled to Luminex beads
T18 sequence (P04234 22-105): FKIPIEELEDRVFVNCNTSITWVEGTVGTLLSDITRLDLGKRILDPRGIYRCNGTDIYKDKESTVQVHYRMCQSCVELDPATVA
The experiment is described as follows: Luminex bead assay, 1 ug/ml antibody [Cont.]. The protocol: as §1, §2

In experiment [9] the target is T9, BSA alone. The experiment is described as follows: Luminex bead assay, 1 ug/ml antibody [Cont.]. On the procedure: as §1, §2

No end group written: not given here. *: point of attachment. Biotin = O=C1N[C@H]2[C@H](CS[C@H]2CCCCC(=O)*)N1; code X = not defined here

T9 sequence (P02769 25-607 limits assumed): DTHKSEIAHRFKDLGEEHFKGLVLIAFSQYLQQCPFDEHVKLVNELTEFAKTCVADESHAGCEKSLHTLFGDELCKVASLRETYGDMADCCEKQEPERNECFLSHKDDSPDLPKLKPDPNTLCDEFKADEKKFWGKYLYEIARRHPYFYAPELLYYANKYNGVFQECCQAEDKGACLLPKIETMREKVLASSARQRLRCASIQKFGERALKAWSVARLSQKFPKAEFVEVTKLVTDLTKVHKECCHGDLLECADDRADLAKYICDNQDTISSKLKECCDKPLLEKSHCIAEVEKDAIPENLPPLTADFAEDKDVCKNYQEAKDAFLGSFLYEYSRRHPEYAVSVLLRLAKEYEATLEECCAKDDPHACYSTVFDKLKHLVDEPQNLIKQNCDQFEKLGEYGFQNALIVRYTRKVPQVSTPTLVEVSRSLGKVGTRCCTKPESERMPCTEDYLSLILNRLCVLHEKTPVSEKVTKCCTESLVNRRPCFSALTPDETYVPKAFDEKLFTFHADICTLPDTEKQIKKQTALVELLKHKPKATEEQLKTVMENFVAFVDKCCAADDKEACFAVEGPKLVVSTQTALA

B1: 6d59 (antibody, V domains shown)
VH: QVHLVESGGGVVQPGRSLRLSCAASGFKFRSYGMHWVRQAPGKGLEWVAIIWYDGSKRYYADSVKGRFTISRDNSKNTLYLQMSSLRAEDTAVYYCARDLITGTTDYWGQGTLVTVSS
VL: DVVMTQSPLSLPVTLGQPASISCRSSRSLVYSDGNTHLIWFQQRPGQSPRRLIYRVSNRVSGVPDRFSGSGSGTDFTLKISRVEAEDVGVYYCLQGAHWPYTFGQGTKLEIKR
notes: also called 6d59.1; VCD3-6d59.1
For B1, the binding result (in experiment [1]; in the experiment with B X GNEEMGGITQTPYKV; with B X NEEMGGITQTPYKVS; in the experiment with B X EMGGITQTPYKVSIS; with B X GITQTPYKVSISGTT [2]; with B X ITQTPYKVSISGTTV) was “no binding (tested: 1 ug/ml)” in each case. Moreover, the binding result in the experiment with B X QTPYKVSISGTTVIL [3], with B X QDGAEEMGGITQTP [4] and in the experiment with BSA alone [5] was “no binding (tested: 1 ug/ml)” in each case. In addition, the Luminex signal in the experiment with B X EEMGGITQTPYKVSI was found to be 43; with B X MGGITQTPYKVSISG, 26.5; in the experiment with B X GGITQTPYKVSISGT, 29.5; with B X GITQTPYKVSISGTT [6] it was 43; with B X QTPYKVSISGTTVIL [7] it was 31.5; with B X ADGNEEMGGITQTPY it was 11300. Also, the Luminex signal stood at 32.5 in the experiment with B X QDANEEMGGITQTP; 48 in the experiment with B X QDGAEEMGGITQTP [8]; 2580 with B X QDGNEEAGGITQTP; 2630 with B X QDGNEEMGGATQTP; 2910 with B X QDGNEEMGGIAQTP; 23200 with huCD3d/eCHO-E DT1331. Further, the Luminex signal with BSA alone [9] came to 420.
